In assay [1] the target is T1, human Nectin-4 at the surface of SUM185 and SUM190 human breast cancer tumor cells (human, UniProt Q96NY8 32-510).
T1 sequence: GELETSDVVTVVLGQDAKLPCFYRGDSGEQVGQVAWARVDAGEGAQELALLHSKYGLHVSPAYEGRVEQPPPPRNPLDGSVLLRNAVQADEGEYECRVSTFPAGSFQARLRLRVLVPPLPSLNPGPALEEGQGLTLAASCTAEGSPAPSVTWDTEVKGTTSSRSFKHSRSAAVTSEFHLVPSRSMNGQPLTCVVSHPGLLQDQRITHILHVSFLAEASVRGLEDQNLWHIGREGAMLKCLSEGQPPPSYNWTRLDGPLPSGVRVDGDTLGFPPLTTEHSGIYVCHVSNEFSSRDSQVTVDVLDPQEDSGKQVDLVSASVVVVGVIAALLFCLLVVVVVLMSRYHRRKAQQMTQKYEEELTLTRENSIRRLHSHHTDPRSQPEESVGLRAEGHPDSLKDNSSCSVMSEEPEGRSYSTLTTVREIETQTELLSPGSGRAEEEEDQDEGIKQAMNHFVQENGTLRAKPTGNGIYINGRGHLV
The experiment in a line: cell-based or functional assay.

Assay [2] has as its target T2, modified Nectin-4 having the Ig-like C2 type 1 and the Ig-like C2 type 2 domains and lacking the Ig-like V … (human, UniProt Q96NY8 148-510).
T2 construct: also called C1C2 construct
T2 sequence: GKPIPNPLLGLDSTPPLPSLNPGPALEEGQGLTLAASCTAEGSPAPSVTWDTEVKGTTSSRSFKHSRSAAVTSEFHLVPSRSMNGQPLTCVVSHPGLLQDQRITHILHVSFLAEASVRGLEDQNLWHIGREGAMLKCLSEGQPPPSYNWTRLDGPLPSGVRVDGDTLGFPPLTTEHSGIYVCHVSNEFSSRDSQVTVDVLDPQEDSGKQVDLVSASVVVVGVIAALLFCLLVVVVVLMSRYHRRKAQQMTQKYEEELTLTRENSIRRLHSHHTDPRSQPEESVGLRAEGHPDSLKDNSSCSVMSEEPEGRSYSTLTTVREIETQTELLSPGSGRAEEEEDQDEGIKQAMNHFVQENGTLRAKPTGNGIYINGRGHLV
The experiment in a line: flow cytometry on CHO cells expressing Nectin4-C1C2-V5. A general note: Flow cytometry measures light scatter and fluorescence of single cells or particles in a stream.

In assay [3] the target is T3, wild-type human Nectin-4 protein expressed on CHO cells (huNectin4 CI.3C8 cell line) (human, UniProt Q96NY8 32-510).
T3 construct: also called whole Nectin-4 protein; wild type Nectin-4
T3 sequence: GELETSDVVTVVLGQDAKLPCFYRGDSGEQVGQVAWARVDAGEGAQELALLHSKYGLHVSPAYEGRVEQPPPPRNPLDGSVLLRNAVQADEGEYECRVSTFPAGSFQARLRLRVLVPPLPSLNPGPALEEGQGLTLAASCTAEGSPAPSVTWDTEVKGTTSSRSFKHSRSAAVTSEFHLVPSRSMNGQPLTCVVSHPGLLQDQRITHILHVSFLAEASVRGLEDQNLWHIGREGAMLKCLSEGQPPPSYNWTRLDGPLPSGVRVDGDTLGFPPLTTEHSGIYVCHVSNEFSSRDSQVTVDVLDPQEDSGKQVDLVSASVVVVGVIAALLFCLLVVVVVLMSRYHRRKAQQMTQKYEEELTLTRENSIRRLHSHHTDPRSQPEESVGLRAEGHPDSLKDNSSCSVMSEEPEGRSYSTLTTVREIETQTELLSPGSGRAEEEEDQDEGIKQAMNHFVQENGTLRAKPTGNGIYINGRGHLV
The experiment in a line: flow cytometry on CHO cells expressing wild-type human Nectin-4.

Results on 4 molecules are retold here after US20230099149A1 (INNATE PHARMA, published 2023).

B1: N4 ADC1: anti-Nectin-4 antibody (VH and VL of SEQ ID NOS: 9 and 10, human IgG1) conjugated to a linker-camptothecin analogue (antibody, V domains shown)
VH: QVQLKQSGPGLVQPSQSLSITCTVSGFSLTNYGVHWVRQSPGKGLEWLGVIWSGGSTDYNAAFISRLSISKDTSKSQVFFKMNSLQADDTAIYYCARELIHAMDNWGQGTSVTVSS
VL: DIQMTQSPASLSVSVGETVTITCRASENIYSNLAWYQQKQGNSPQLLVFAATNLADGVPSRFSGSGSGTQYSLKINSLQSEDFGTYYCQHFWGTPTFGGGTKLEIK
modifications: linker-camptothecin analogue conjugated stochastically via cysteine residues after partial reduction of interchain disulfide; average drug:antibody ratio of about 8
Regarding B1, in assay [1], the “IC50 of cell death, SUM185 cells, Cell Titer Glo viability at day 6” value worked out at 0.05 nM and the “IC50 of cell death, SUM190 cells, Cell Titer Glo viability at day 6” value was 0.1 nM.

B2: N41 (VH and VL of SEQ ID NOS: 9 and 10 as human IgG1 isotype) (antibody, V domains shown)
VH: QVQLKQSGPGLVQPSQSLSITCTVSGFSLTNYGVHWVRQSPGKGLEWLGVIWSGGSTDYNAAFISRLSISKDTSKSQVFFKMNSLQADDTAIYYCARELIHAMDNWGQGTSVTVSS
VL: DIQMTQSPASLSVSVGETVTITCRASENIYSNLAWYQQKQGNSPQLLVFAATNLADGVPSRFSGSGSGTQYSLKINSLQSEDFGTYYCQHFWGTPTFGGGTKLEIK
notes: also called mAbC
Turning to B2, the values for the binding result in assay [2] and in assay [3] were “no binding” and “binds”, respectively.

B3: N4 ADC2: anti-Nectin-4 antibody (VH and VL of SEQ ID NOS: 9 and 10, human IgG1) conjugated to a SN-38 containing linker (antibody, V domains shown)
VH: QVQLKQSGPGLVQPSQSLSITCTVSGFSLTNYGVHWVRQSPGKGLEWLGVIWSGGSTDYNAAFISRLSISKDTSKSQVFFKMNSLQADDTAIYYCARELIHAMDNWGQGTSVTVSS
VL: DIQMTQSPASLSVSVGETVTITCRASENIYSNLAWYQQKQGNSPQLLVFAATNLADGVPSRFSGSGSGTQYSLKINSLQSEDFGTYYCQHFWGTPTFGGGTKLEIK
modifications: SN-38 containing linker conjugated via cysteine residues after partial reduction of interchain disulfide
Consider B3, for which the “IC50 of cell death, SUM190 cells, Cell Titer Glo viability at day 6” value in assay [1] was 0.4 nM.

B4: enfortumab (VH and VL of SEQ ID NOS: 3 and 4 as human IgG1 isotype) (antibody, V domains shown)
VH: EVQLVESGGGLVQPGGSLRLSCAASGFTFSSYNMNWVRQAPGKGLEWVSYISSSSSTIYYADSVKGRFTISRDNAKNSLSLQMNSLRDEDTAVYYCARAYYYGMDVWGQGTTVTVSS
VL: DIQMTQSPSSVSASVGDRVTITCRASQGISGWLAWYQQKPGKAPKFLIYAASTLQSGVPSRFSGSGSGTDFTLTISSLQPEDFATYYCQQANSFPPTFGGGTKVEIKR
notes: also called mAbA; ASG-22ME
Take B4: the binding result in assay [2] is listed as “no binding”.
